A short description of the data set: soluble fraction after stress (log2 fold change); higher = more stays soluble; pooled small domains, quantitative proteomics. The following applies: stress: 75 degC.
For the sequence “HMTSSKISFIDPVNGGKVSVSLENSTLEKLQNRFGVNSVVRNEAGDVELKDKAQEFVAGWFADIAYTRG”, the “soluble fraction (log2)” value is -0.0154.

Consider “HMTTAGTAIVQTGNSGKLNLREQAYANAGILGRYSNGTAVTVLQKGAAWSYVEVKGQKGYMMSKFLKFTS”, for which the “soluble fraction (log2)” value is -1.53. With “HMTTEIVRMKKDVKIGQEITAKDIEVVEVGAYNLPDEVIRSSEEVVGKYVSSELLKGEYVLPSKISDTP”, the “soluble fraction (log2)” value worked out at 0.22. Take “HMTTEPYILTRMPDGSIKAEPNLNYKGPEQKPGSNIQVKGADGRIYLVPIDGQGKPGKPQLVD”: the “soluble fraction (log2)” value turned out to be 0.0898. With “HMTTGLETYPGKIAVVSDDFIDGEGRVQLDGALWRAKTKDHQQLKQGDHVTIVNVKGLTLTVMPDD”, the “soluble fraction (log2)” value turned out to be 0.716. “HMTTGREGLIGAVGTVRQAIAPEGYVFVEGELWRAKSPAGPLEPGTTVRVIAIDGLTLTVMPAE”: the “soluble fraction (log2)” value was -0.965. Then “HMTTGTVKWFNDAKGFGFITPDDRSVDVFVHYSNIVGQSGRRTLMEGERVEYEAIEGPKGPQATDVARA”, with -0.223; and “HMTTIFDNINGELRRRHLTQQDLAKTIEIDRRTWSKWQDKNDMPASVLLQIAKWLNVTLDYLTRD”, with -2.57.

Take “HMTTIKLTQEDVEKIKSLPKRTFLIGNLQQTGLYDEKTRRFYYLDANGEWNGRLAIINTPPPPPPPP”: the “soluble fraction (log2)” value was found to be 0.0273. As for “HMTTKYMVLVNWVKEKVRTNELKTGEKLYSEHEFSRMFHMSRQTVRHGISILERENIVERRQGSGTFIKDA”, the figure is -2.95. In the case of “HMTTKYVAVHESKDGYWTIASKPSSKEDAEAMLGGTPKNEVGKVVTLEEAKAHKKTLGEEYLYE”, the “soluble fraction (log2)” value came to 0.218. As to “HMTTMTTGQRIAAKRKEQGLSQENLGEQLGVSRQAIYKWESDASLPDIDKLIALSRLFGVSTDYLLLE”, the “soluble fraction (log2)” value is -0.584. As for “HMTTQIPEEVQKRVNQFYEALDEEDYGEAKQILEELEKATAPDHPTLIQMRTRYEFDTMELR”, the figure is 0.329; as for “HMTTTPAERQRTILRSLNRVDPVSVDALARLTGVSVVTIRRDLSDLASRDLIRRVHGGALLPTR”, -1.62.

As for “HMTTYSVDLGDIRAVADSDGKLVELTLHAAVTTHYSHSELADRLNLAFTALREEAQADYETRY”, the “soluble fraction (log2)” value turned out to be 0.223.

On to “HMTTYTGVVTGSGVNVRSGAGTSYPVVGSKTMGDVVTITETVSADGMIWGKIDIGWISMNYVRM”, for which the “soluble fraction (log2)” value is -2.75.

With “HMTVAQEIEARRATIRSSDPAEMARFIRWLIMEGHTEPAADELKKYAENFPEASATTKQLQALLAAR”, the “soluble fraction (log2)” value was -0.311. Then “HMTVDIADALRVLGLSDAPDWSDVRAAHRRAIVRTHPDAGGSAGDAARVNQAFDLLRKISGNGERPIPG”, with 0.012. For the sequence “HMTVDTSELEEMIDDLIKEHPNEWERYSSGEKKVQGFFVGQVMKATSGQADGKAINQILSKRVKS”, the “soluble fraction (log2)” value was 0.803.

In the case of “HMTVDYDKFTKDTVVQHNKFGKGVIIMTSGDGEDKIASIAFQGLGVKRFSLAIAASNLKILGKVNED”, the “soluble fraction (log2)” value was -2.48. As for “HMTVEVFQSLVQTFREMSPRKAASILEELKRDLAVEILLHMPEDGVAAILARMDPARAARLTEQLALEKD”, the figure is -1.86.

In the case of “HMTVGEAHLEEVYLKVLKQVEEQGTALIRTTDVETGRPAAGIRRRYMRGTLPDEWVAKFEALPGWTWAPG”, the “soluble fraction (log2)” value is -3.04. As for “HMTVGEKIQKYRKDLDLSQEELGQKLLVSRQTISLWEKDQTVPTIDNLIRLREIFGVSVDEILGF”, the “soluble fraction (log2)” value was -0.818. As for “HMTVIARQIPPLVPRMLDGLEAFIKLDVPFEEKERLARVQMLRSSLDRDNLDTAEIFRAVLEAYNIELQY”, the figure is 0.352; as for “HMTVKKEIAKVKPTPLGWLRVRETPSLNGAEITKVNTGESYDVLDKETGWIKIKVSETVEGWVSDAYIELS”, -0.319; as for “HMTVLPTENDAKALVGLNEDEAVKIIEGNGWTYRIGSRDGEQFMLTEDYSTSRLTLGIEKSIVVTATI”, -0.543. As for “HMTVLVPNLTGKTLLEAEILLDQAGLKKGDVYSESNKNVPKDHIIRQKPAPNTKIQKGATIDIYRSLGPE”, the “soluble fraction (log2)” value is -0.0471. Consider “HMTVNLPPKQKAAILLMSLPPEVSAQLFKELGPDEVHAITLEISKLPPISPDVRAQVIDEFLHSS”, for which the “soluble fraction (log2)” value was -0.641.

For the sequence “HMTVSIGSVIARERRLRGDTQQELAERLGVSKAAVSKWEVGQSIPDVTLLPRIAAYFSLTLDEL”, the “soluble fraction (log2)” value was -2.45. As for “HMTVVLPGESLTVNIIQEGKELGQGVGYLDDGTMVVIEDGRRYIDQTIEVTVTRVLQTVAGRMIFAQLT”, the figure is -4.46; as for “HMTWDSFIGYTVTDVQKGYLGEITDVDETTINVLLRVDHKGEELLIPAVEELITEADHEARSLTVSLPEGL”, -0.398; as for “HMTYFIADLIGLQVYTDSGELLGKVDDIYNSGSADIYVVKDELGKQILLPGIKDVIKQIDVDNEKIIVHLI”, -1.24. As for “HMTYIQSNLKFLRNKMNISQEELAKRLFVTHQTVSNHENGKSQPNFEMIEKYASFFNVPFEDLIHKDLSL”, the figure is -0.68.

As for “HMTYNIPEHYQTIDVKEYVRKLVSDGDSDQIGRVEMELTEFETRNLFPVLKVLIYIIDTMRK”, the “soluble fraction (log2)” value is -3.

As to “HMTYQTVRYGSTGSAVRQLQSALNQKGYQLSEDGIFGAKTRAAVRDYQKKNGLLLDGIAGSQTWNHLMS”, the “soluble fraction (log2)” value was -0.179. On to “HMTYSSESVRYRIKSLIDNETIDEILSDDKIVNILKSQGIDVARRTVAKYREAMGLASSIQRRREKKSA”, for which the “soluble fraction (log2)” value is -0.707. In the case of “HMVAGGTVSRKLSIETGLPKRKSLIGSWLDQNSVWHNIISVRHRNGYGDGVNYGFYLRSLLTSEGNLAW”, the “soluble fraction (log2)” value was -0.0583. As for “HMVAGHLQTKKGYYYIVLNMRTDTGARKTKWIATGIPEGGKKNLKQAEELLAKTRYTYEDMVI”, the figure is -2.52; as for “HMVAPKTEEQQKMFLESIVTKRQAETLIEKYPNIVQDIIDGTDNVDLANLKGIGEHTYNLIKEKVLSNY”, 0.546; as for “HMVAPPILNITTHIFAEEADLRMVMINGVTRREGDSLGENHRLLEITERGLILIFHNKQYTLDV”, -4.32.

As to “HMVAQEVPYSTFVMRLDRNEVDAVKIIDGNEIEGTFKSPNGDLVQFKTLIPYQDTELMPLLKQKGVRISGS”, the “soluble fraction (log2)” value is 0.427.

For the sequence “HMVARPVLQIGSTGADVTAIQARLGVSQTGYFGVLTAAAVTNFQRSNGIAASGKVGATTWAKLMQSA”, the “soluble fraction (log2)” value was -2.37. As for “HMVAVSQEEATKMALERVSGASAQDIRIQLEFDDGIQKYEGDIIYNGREYEFEIDANTGTFLEWSEERA”, the figure is -0.176; as for “HMVDETDVPTFTDMTLEEAQNEAKQRNLKLEITESPSDKEKDTILEQDPEPGKTVASGSTVKLTVSNGEE”, -0.157.

As for “HMVDFHAAYSILRIAPGASWQEIQAAYEKLNDAWREDRYPQVPFWNEKAAFKRREVEQAYEKLRKFHALRH”, the “soluble fraction (log2)” value was -2.43.

With “HMVDFVNVVVPVKANYGGEAVVEFLDERLSEFGTEGIYRIELQGETMENPSPDYSQLKAKYHISEIVDRT”, the “soluble fraction (log2)” value stood at 0.0718. For the sequence “HMVDKDFKPLYASLERLDSTSIIEILDSNRIDYRIDQRSGALLVDADQIHQARLSLASAGMPA”, the “soluble fraction (log2)” value was -0.263. Then “HMVDLANIDPIASSIKLNGAEADASFNTLEDRRVSVSGSFEENKNYTMEYTFKDYAGGSVTGTLDFKTLA”, with 0.36.

For the sequence “HMVDLAPTEEIIKNLPNNSRSLLIPTLQKIQNAYRYLPSPAMELLSEFLNVTRAEIYGVISFYPSLL”, the “soluble fraction (log2)” value turned out to be 0.173. “HMVDLLDETLIEFYAFANNLIKDLETNSEKYGGMSQFEKELIFNEQITQYQRKLKIDLQDEVG”: the “soluble fraction (log2)” value is -1.8. Then “HMVDPRLRSLTPQERRILEHIAEGLTNRQIAEDMFLAEKTVKNYVTSILDKLGMDSRTQAAVYAATHPT”, with -0.483; and “HMVDSTDLIPLLIKVSREKQGNKKLNWGEWLKIPENIYLKQINENIARKVFEDTNDLIDEAVNYINRKRRN”, with -0.963; and “HMVDTEVFSRLLRKVLAGDVTSAIRILEELIVGGRELSQFVGDFTWYMRNLLLVKTSDNPEEA”, with -0.463. Then “HMVDYYEILGVSPDASRKDIENAWRKKMREAHPDMGGSEDKAQLLNEAHKVLSDESARAEYDASR”, with 0.181. As for “HMVELPDLIGKSKRLAFTQLEISGLKIGKIIYEPDLAKDAVLKILYNGKIVKAGEQLPRFATVDLVLG”, the figure is -2.11; as for “HMVEMIGLQMVGKSGIASTVLRPSGKVRIDGVVYDAVSEDGFIEKGQAVKVLRYETGQVYVEKL”, -0.727; as for “HMVEPIEESISQLSLLLQSLYEDGKSEVSFEELIRSDRSRVSLFLALLFMAQRGNVYLEQEELFGDLRVKN”, 0.0329. On to “HMVEREYRLEVPPEAEGKRLDQFLVNQPVQLSRSQVQHLIQNGLVLVNAKTRRSSYRVHTGDIIEMQVPA”, for which the “soluble fraction (log2)” value was found to be 0.121. As for “HMVERQVTVPNLTGLGVADAQRLAQSMELDIEVLGEQESTDARPGAVLQQTPGAGTRAAAGSVVSVLV”, the “soluble fraction (log2)” value came out at 0.201.

As to “HMVEVPEQLRDLLERSIEDLAELSVRSRNSLQKENIQTLGDLVQRTEEEMLGIENFGKKSLTEIAAFL”, the “soluble fraction (log2)” value was -0.217. As for “HMVEYFDDENLDAFIGRESDSYTEKEIEQFREILYTMNQKEVADWNRSLTIRGINIPNDLKDEMIMMI”, the figure is -0.225; as for “HMVEYIENINLSEKQKFIAHEILKEIRGRAIFLRDVGLDYLNLSRKAGTLSGGEAQRIRLATQIGSA”, 0.198. On to “HMVFKSAQEGLDFYSKQLNDVDATLGRIRRGEESGNGLYGSNRVKNLEEQRKKLDSFVTAYRNAVNAT”, for which the “soluble fraction (log2)” value is 0.0212.

In the case of “HMVFTEEEMLEKIKEYLSTNSYINRRAMETLFNLRQSTALKWLGHFTEIGVLRKEGERNYPVYFLNN”, the “soluble fraction (log2)” value was -0.972. Then “HMVGADTISDLISQRGRMIGDKPITNAVIKSGSEFSTINALSKAIASGDARTNDVEGMKPVFR”, with -0.126. Then “HMVGKGASIILDRVNLPQYLEKFNEDGFDTIESLKNLNEIDLKEMGVKKGHIRVILNYLHEEY”, with -0.421; and “HMVGLKWYDTGNKKPPIGTEYKNTELSEALKGHDRKEFTWKELDVLGVNITDKEQYIVVGENYYTQV”, with 0.0506. Then “HMVGPAHIGLAVAKDQLPHWERHLTANGVEIEGRMRWDHGGESIYFRDPDAHLLELVTPGIWAN”, with 0.0383; and “HMVGVDMTVKEEVGKEGVTFTDLRPAGKVEIGNDIYDAVSNTGAFIQKGEKVKIIKYQAGQVYVEKLV”, with 0.00838. Consider “HMVIANADVRAKFSKGKDSFVKYYFKEKVLKDGFTEEVKNNIVQALFYLQIVTRIDGESGVLIIDY”, for which the “soluble fraction (log2)” value was determined as 0.123.
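Further: 20 min heating vs room temperature control held 20 min.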
